{"source": "patent US20260132217A1", "about": "(UNIVERSITE D AIX MARSEILLE, published 2026)", "target": "T1, membrane CD146 on cells (U87, U373, HUVEC) (human, UniProt P43121 24-646)", "T1 construct": "whole, on cells; also called MCAM; membranous CD146", "T1 sequence (looked up)": "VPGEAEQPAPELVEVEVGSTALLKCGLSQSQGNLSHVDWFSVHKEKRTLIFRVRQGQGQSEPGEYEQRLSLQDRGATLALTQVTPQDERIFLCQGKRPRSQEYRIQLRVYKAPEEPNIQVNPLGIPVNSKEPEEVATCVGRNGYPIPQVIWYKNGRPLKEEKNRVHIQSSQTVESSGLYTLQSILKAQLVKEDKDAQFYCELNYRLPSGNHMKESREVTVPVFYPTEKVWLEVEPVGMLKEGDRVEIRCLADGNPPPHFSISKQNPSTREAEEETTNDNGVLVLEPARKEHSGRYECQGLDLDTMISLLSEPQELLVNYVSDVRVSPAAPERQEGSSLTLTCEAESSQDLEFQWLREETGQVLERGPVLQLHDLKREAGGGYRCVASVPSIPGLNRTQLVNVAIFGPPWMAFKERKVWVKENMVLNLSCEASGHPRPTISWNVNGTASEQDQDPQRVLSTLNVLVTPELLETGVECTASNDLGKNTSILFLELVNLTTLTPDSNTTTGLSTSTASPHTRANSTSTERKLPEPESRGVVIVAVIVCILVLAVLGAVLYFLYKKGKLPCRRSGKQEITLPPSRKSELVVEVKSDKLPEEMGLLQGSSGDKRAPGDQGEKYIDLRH", "assay": "co-immunoprecipitation with anti-CD146 antibody S-Endo1 from U87 cells (reproduced in U373), western blot", "protocol": "Non-confluent U373 cells were used for immunoprecipitation with IgG or anti-CD146 antibody. Western-blotting was then carried out using antibodies directed against VEGFR2, CD146 and integrin subunits αv and β3. Membrane receptor EPcam was used as a negative control (A). U373 cells transfected or not with siRNA targeting β3 integrin were stimulated for 25 min with sCD146 or VEGF, and CD146 was immunoprecipitated before western blotting was done using antibody directed against total phospho-tyrosine (B). Control, CD146-KO, VEGFR2-KO or β3-KO U87 cells were stimulated for 25 min with either sCD146 or VEGF. Lysates were then subjected to western-blotting and membranes were probed with either anti-phospho β3 Y759 (C) or anti-phospho VEGFR2 Y1054 (D). Average of 3 experiments is shown; *P<0.05, **P<0.01, ***p<0.001, experimental vs control.\nBriefly, cells were grown on plates and treated as a function of the experiment, then washed in PBS, scraped off the plates and extracted with 300 μl of ice-cold RIPA buffer (150 mM NaCl, 50 mM Tris HCl, pH 7.4, 2.4 mM EDTA, 1% Nonidet P40, 0.5 mM phenylmethylsulfonyl fluoride, supplemented with protease and phosphatase inhibitor (A32959)) for 30 min at 4° C. After centrifugation (12,000 g, 10 min, 4° C.) to eliminate cell debris and nuclei, the Pierce™ BCA protein assay kit was used to quantify protein concentration. […]", "data": [{"binder": "EPCAM on cells (U87, U373) (other, human, UniProt P16422 24-314, looked up, whole, on cells) QEECVCENYKLAVNCFVNNNRQCQCTSVGAQNTVICSKLAAKCLVMKAEMNGSKLGRRAKPEGALQNNDGLYDPDCDESGLFKAKQCNGTSMCWCVNTAGVRRTDKDTEITCSERVRTYWIIIELKHKAREKPYDSKSLRTALQKEITTRYQLDPKFITSILYENNVITIDLVQNSSQKTQNDVDIADVAYYFEKDVKGESLFHSKKMDLTVNGEQLDLDPGQTLIYYVDEKAPEFSMQGLKAGVIAVIVVVVIAVVAGIVVLVISRKKRMAKYEKAEIKEMGEMHRELNA", "values": [{"measurement": "binding result", "result": "no binding"}]}]}
